Results on 4 molecules are retold here after patent US20230181639A1 (published 2023).

Assay [1] concerns the target T1, EBV latent membrane protein LMP2 (mutant-type epitope, LTK; as in SEQ ID NO: 28) peptide on HLA-A*11:01 (human).
T1 peptide: SSCSSCPLTK
Put plainly: multimer staining.

The target of assay [2] is T2, EBV latent membrane protein LMP2 (wild-type epitope, LSK; as in SEQ ID NO: 27) peptide on HLA-A*11:01 (human).
T2 peptide: SSCSSCPLSK
Put plainly: multimer staining.

B1: E318 (TCR, V domains shown)
Valpha: GENVEQHPSTLSVQEGDSAVIKCTYSDSASNYFPWYKQELGKRPQLIIDIRSNVGEKKDQRIAVTLNKTAKHFSLHITETQPEDSAVYFCAASNRDDKIIFGKGTRLHILP
Vbeta: DAGVIQSPRHEVTEMGQEVTLRCKPISGHNSLFWYRQTMMRGLELLIYFNNNVPIDDSGMPEDRFSAKMPNASFSTLKIQPSEPRDSAVYFCASSLGAGHLWGYTFGSGTRLTVV
Regarding B1, the binding result in assay [1] and in assay [2] was “recognises” each time.

B2: E149 (TCR, V domains shown)
Valpha: GIQVEQSPPDLILQEGANSTLRCNFSDSVNNLQWFHQNPWGQLINLFYIPSGTKQNGRLSATTVATERYSLLYISSSQTTDSGVYFCAVVDNNDMRFGAGTRLTVKP
Vbeta: DTEVTQTPKHLVMGMTNKKSLKCEQHMGHRAMYWYKQKAKKPPELMFVYSYEKLSINESVPSRFSPECPNSSLLNLHLHALQPEDSALYLCASSPGRWYEQFFGPGTRLTVL
In the case of B2, the binding result in assay [1] and in assay [2] was “recognises” throughout.

B3: E315 (TCR, V domains shown)
Valpha: KQEVTQIPAALSVPEGENLVLNCSFTDSAIYNLQWFRQDPGKGLTSLLLIQSSQREQTSGRLNASLDKSSGRSTLYIAASQPGDSATYLCAGKTSYDKVIFGPGTSLSVIP
Vbeta: EAGVAQSPRYKIIEKRQSVAFWCNPISGHATLYWYQQILGQGPKLLIQFQNNGVVDDSQLPKDRFSAERLKGVDSTLKIQPAKLEDSAVYLCASSVFPTSVEQYFGPGTRLTVT
As for B3, the binding result in assay [1] and in assay [2] was “recognises” throughout.

B4: E316 (TCR, V domains shown)
Valpha: AQKITQTQPGMFVQEKEAVTLDCTYDTSDQSYGLFWYKQPSSGEMIFLIYQGSYDEQNATEGRYSLNFQKARKSANLVISASQLGDSAMYFCAMVSGAGGGADGLTFGKGTHLIIQP
Vbeta: DGGITQSPKYLFRKEGQNVTLSCEQNLNHDAMYWYRQDPGQGLRLIYYSQIVNDFQKGDIAEGYSVSREKKESFPLTVTSAQKNPTAFYLCASSIGVGLSNTEAFFGQGTRLTVV
Regarding B4, the binding result in assay [1] and in assay [2] was “recognises” throughout.
